Laboratory results from the supplement of paper PMC5998384.

Key:
HeLa Kyoto [1] = assay: solubility change mitosis vs G1/S (difference of NP-40 vs SDS log2 ratios) (log2 ratio difference); higher = more soluble in mitosis
HeLa Kyoto [2] = assay: solubility in G1/S (NP-40 vs SDS abundance) (log2 ratio); higher = more soluble; conditions: cell cycle stage: G1/S
HeLa Kyoto [3] = assay: thermal stability score vs G1/S (z-score of summed log2 fold changes over temperatures); higher = more thermally stable than in G1/S
HeLa Kyoto [4] = assay: melting temperature (median over replicates), in situ; higher = more thermally stable
[5] = cell cycle stage: early G1 (4.5 h after nocodazole release)
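For melting temperature (median over replicates), in situ in this document: HeLa Kyoto cells synchronized by double thymidine or nocodazole block, proteins quantified by TMT10plex mass spectrometry, three independent biological replicates.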
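For solubility change mitosis vs G1/S (difference of NP-40 vs SDS log2 ratios) in this document: synchronized HeLa Kyoto cells (double thymidine block for G1/S, nocodazole release for mitosis), protein amounts in NP-40 versus SDS lysates quantified by mass spectrometry, three biological replicates.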
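For solubility in G1/S (NP-40 vs SDS abundance) in this document: HeLa Kyoto cells arrested at G1/S by double thymidine block, proteins quantified by TMT10plex mass spectrometry in mild NP-40 versus SDS extracts, three biological replicates.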
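For thermal stability score vs G1/S (z-score of summed log2 fold changes over temperatures) in this document: synchronized HeLa Kyoto cells, proteins quantified by TMT10plex mass spectrometry, three biological replicates, mitosis taken 0.5 h after nocodazole release, G1/S directly after double thymidine block.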

RNGTT, sequence (chain, as listed by the source): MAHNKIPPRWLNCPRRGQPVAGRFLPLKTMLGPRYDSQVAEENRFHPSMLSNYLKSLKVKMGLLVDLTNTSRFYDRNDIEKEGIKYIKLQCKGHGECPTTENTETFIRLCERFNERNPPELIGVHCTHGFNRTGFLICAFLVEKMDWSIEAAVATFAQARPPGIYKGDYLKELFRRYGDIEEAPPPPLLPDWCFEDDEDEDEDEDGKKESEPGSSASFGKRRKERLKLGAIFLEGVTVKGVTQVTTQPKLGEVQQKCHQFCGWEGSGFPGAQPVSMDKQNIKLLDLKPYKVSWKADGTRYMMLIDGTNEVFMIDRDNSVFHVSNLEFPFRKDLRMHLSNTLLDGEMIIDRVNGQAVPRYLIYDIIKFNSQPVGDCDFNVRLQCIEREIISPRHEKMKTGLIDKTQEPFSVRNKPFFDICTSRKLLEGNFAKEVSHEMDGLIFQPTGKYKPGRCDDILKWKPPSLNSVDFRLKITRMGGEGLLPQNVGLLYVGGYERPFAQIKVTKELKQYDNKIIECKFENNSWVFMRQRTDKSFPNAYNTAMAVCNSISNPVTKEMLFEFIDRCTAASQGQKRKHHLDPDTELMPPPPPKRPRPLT

| Substance | solubility change mitosis (log2) (HeLa Kyoto [1]) | solubility in G1/S (log2) (HeLa Kyoto [2]) | thermal stability score (HeLa Kyoto [3]; [5]) | thermal stability score (HeLa Kyoto [3]; cell cycle stage: mitosis) | melting temperature (HeLa Kyoto [4]; cell cycle stage: G1/S) [°C] | melting temperature (HeLa Kyoto [4]; cell cycle stage: mitosis) [°C] |
| --- | --- | --- | --- | --- | --- | --- |
| MAGSRLPRQLFLQGVAAVFMFAFASLYTQIPGLYGPEGILPARRTLRPQGKGRWQQLWETPTLLWEAPRLGLDTAQGLELLSLLGALVALGALLLSPLRHPVIYLLLWAAYLSACQVGQVFLYFQWDSLLLETGFLAVLVAPLRPASHRKEAPQGRQAGALPHEDLPFWLVRWLLFRLMFASGVVKLTSRCPAWWGLTALTYHYETQCLPTPAAWFAHHLPVWLHKLSVVATFLIEIAVPPLFFAPIRRLRLAAFYSQVLLQVLIIITGNYNFFNLMTLVLTTALLDDQHLAAEPGHGSRKKTATSWPKALLATLSLLLELAVYGLLAYGTVHYFGLEVDWQQRTIHSRTTFTFHQFSQWLKTLTLPTVWLGVASLVWELLSALWRWTQVRGWLRKLSAVVQLSLVGTATVALFLISLVPYSYVEPGTHGRLWTGAHRLFGAVEHLQLANSYGLFRRMTGLGGRPEVVLEGSYDGHHWTEIEFMYKPGNLSRPPPVVVPHQPRLDWQMWFAALGPHTHSPWFTSLVLRLLQGKEPVIRLVQSQVARYPFHKQPPTYVRAQRYKYWFSQPGEQGQWWRRQWVEEFFPSVSLGDPTLETLLRQFGLQEKSPPRTRSANSTLAQALHWTRSQLSPLEAPALLWGLLMAVGAVRFVQALLAPCSLRSSPLAPVSGEKRRPASQKDSGAASEQATAAPNPCSSSSRTTRRKK [LMF2] | -0.0691 | -0.171 | -0.462 | -1.11 | 51.9 | 52.8 |
| MGILSITDQPPLVQAIFSRDVEEVRSLLSQKENINVLDQERRTPLHAAAYVGDVPILQLLLMSGANVNAKDTLWLTPLHRAAASRNEKVLGLLLAHSADVNARDKLWQTPLHVAAANRATKCAEALAPLLSSLNVADRSGRSALHHAVHSGHLETVNLLLNKGASLNVCDKKERQPLHWAAFLGHLEVLKLLVARGADLGCKDRKGYGLLHTAAASGQIEVVKYLLRMGAEIDEPNAFGNTALHIACYLGQDAVAIELVNAGANVNQPNDKGFTPLHVAAVSTNGALCLELLVNNGADVNYQSKEGKSPLHMAAIHGRFTRSQILIQNGSEIDCADKFGNTPLHVAARYGHELLISTLMTNGADTARRGIHDMFPLHLAVLFGFSDCCRKLLSSGQLYSIVSSLSNEHVLSAGFDINTPDNLGRTCLHAAASGGNVECLNLLLSSGADLRRRDKFGRTPLHYAAANGSYQCAVTLVTAGAGVNEADCKGCSPLHYAAASDTYRRAEPHTPSSHDAEEDEPLKESRRKEAFFCLEFLLDNGADPSLRDRQGYTAVHYAAAYGNRQNLELLLEMSFNCLEDVESTIPVSPLHLAAYNGHCEALKTLAETLVNLDVRDHKGRTALFLATERGSTECVEVLTAHGASALIKERKRKWTPLHAAAASGHTDSLHLLIDSGERADITDVMDAYGQTPLMLAIMNGHVDCVHLLLEKGSTADAADLRGRTALHRGAVTGCEDCLAALLDHDAFVLCRDFKGRTPIHLASACGHTAVLRTLLQAALSTDPLDAGVDYSGYSPMHWASYTGHEDCLELLLEHSPFSYLEGNPFTPLHCAVINNQDSTTEMLLGALGAKIVNSRDAKGRTPLHAAAFADNVSGLRMLLQHQAEVNATDHTGRTALMTAAENGQTAAVEFLLYRGKADLTVLDENKNTALHLACSKGHEKCALMILAETQDLGLINATNSALQMPLHIAARNGLASVVQALLSHGATVLAVDEEGHTPALACAPNKDVADCLALILSTMKPFPPKDAVSPFSFSLLKNCSIAAAKTVGGCGALPHGASCPYSQERPGAIGLDGCYSE [ANKRD52] | -0.171 | -0.0981 | -0.0695 | 0.105 | 51.5 | 49.7 |
| CHD4 | 0.0937 | -0.471 | 3.38 | 8.56 | 46.9 | 49.1 |
| MAEAALLLLPEAAAERDAREKLALWDRRPDTTAPLTDRQTDSVLELKAAAENLPVPAELPIEDLCSLTSQSLPIELTSVVPESTEDILLKGFTSLGMEEERIETAQQFFSWFAKLQTQMDQDEGTKYRQMRDYLSGFQEQCDAILNDVNSALQHLESLQKQYLFVSNKTGTLHEACEQLLKEQSELVDLAENIQQKLSYFNELETINTKLNSPTLSVNSDGFIPMLAKLDDCITYISSHPNFKDYPIYLLKFKQCLSKALHLMKTYTVNTLQTLTSQLLKRDPSSVPNADNAFTLFYVKFRAAAPKVRTLIEQIELRSEKIPEYQQLLNDIHQCYLDQRELLLGPSIACTVAELTSQNNRDHCALVRSGCAFMVHVCQDEHQLYNEFFTKPTSKLDELLEKLCVSLYDVFRPLIIHVIHLETLSELCGILKNEVLEDHVQNNAEQLGAFAAGVKQMLEDVQERLVYRTHIYIQTDITGYKPAPGDLAYPDKLVMMEQIAQSLKDEQKKVPSEASFSDVHLEEGESNSLTKSGSTESLNPRPQTTISPADLHGMWYPTVRRTLVCLSKLYRCIDRAVFQGLSQEALSACIQSLLGASESISKNKTQIDGQLFLIKHLLILREQIAPFHTEFTIKEISLDLKKTRDAAFKILNPMTVPRFFRLNSNNALIEFLLEGTPEIREHYLDSKKDVDRHLKSACEQFIQQQTKLFVEQLEEFMTKVSALKTMASQGGPKYTLSQQPWAQPAKVNDLAATAYKTIKTKLPVTLRSMSLYLSNKDTEFILFKPVRNNIQQVFQKFHALLKEEFSPEDIQIIACPSMEQLSLLLLVSK [COG3] | -0.0733 | 0.235 | 0.629 | 1.07 | 50.9 | 49.7 |
| MATCIWLRSCGARRLGSTFPGCRLRPRAGGLVPASGPAPGPAQLRCYAGRLAGLSAALLRTDSFVGGRWLPAAATFPVQDPASGAALGMVADCGVREARAAVRAAYEAFCRWREVSAKERSSLLRKWYNLMIQNKDDLARIITAESGKPLKEAHGEILYSAFFLEWFSEEARRVYGDIIHTPAKDRRALVLKQPIGVAAVITPWNFPSAMITRKVGAALAAGCTVVVKPAEDTPFSALALAELASQAGIPSGVYNVIPCSRKNAKEVGEAICTDPLVSKISFTGSTTTGKILLHHAANSVKRVSMELGGLAPFIVFDSANVDQAVAGAMASKFRNTGQTCVCSNQFLVQRGIHDAFVKAFAEAMKKNLRVGNGFEEGTTQGPLINEKAVEKVEKQVNDAVSKGATVVTGGKRHQLGKNFFEPTLLCNVTQDMLCTHEETFGPLAPVIKFDTEEEAIAIANAADVGLAGYFYSQDPAQIWRVAEQLEVGMVGVNEGLISSVECPFGGVKQSGLGREGSKYGIDEYLELKYVCYGGL [ALDH5A1] | -0.0409 | 0.125 | 1.08 | 0.0757 | 56.1 | 54.8 |
| MLRWLIGGGREPQGLAEKSPLQTIGEEQTQNPYTELLVLKAHHDIVRFLVQLDDYRFASAGDDGIVVVWNAQTGEKLLELNGHTQKITAIITFPSLESCEEKNQLILTASADRTVIVWDGDTTRQVQRISCFQSTVKCLTVLQRLDVWLSGGNDLCVWNRKLDLLCKTSHLSDTGISALVEIPKNCVVAAVGKELIIFRLVAPTEGSLEWDILEVKRLLDHQDNILSLINVNDLSFVTGSHVGELIIWDALDWTMQAYERNFWDPSPQLDTQQEIKLCQKSNDISIHHFTCDEENVFAAVGRGLYVYSLQMKRVIACQKTAHDSNVLHVARLPNRQLISCSEDGSVRIWELREKQQLAAEPVPTGFFNMWGFGRVSKQASQPVKKQQENATSCSLELIGDLIGHSSSVEMFLYFEDHGLVTCSADHLIILWKNGERESGLRSLRLFQKLEENGDLYLAV [WDR41] | -0.21 | 0.0666 | -1.29 | -1.46 | 52.8 | 53.4 |
| MKRRLDDQESPVYAAQQRRIPGSTEAFPHQHRVLAPAPPVYEAVSETMQSATGIQYSVTPSYQVSAMPQSSGSHGPAIAAVHSSHHHPTAVQPHGGQVVQSHAHPAPPVAPVQGQQQFQRLKVEDALSYLDQVKLQFGSQPQVYNDFLDIMKEFKSQSIDTPGVISRVSQLFKGHPDLIMGFNTFLPPGYKIEVQTNDMVNVTTPGQVHQIPTHGIQPQPQPPPQHPSQPSAQSAPAPAQPAPQPPPAKVSKPSQLQAHTPASQQTPPLPPYASPRSPPVQPHTPVTISLGTAPSLQNNQPVEFNHAINYVNKIKNRFQGQPDIYKAFLEILHTYQKEQRNAKEAGGNYTPALTEQEVYAQVARLFKNQEDLLSEFGQFLPDANSSVLLSKTTAEKVDSVRNDHGGTVKKPQLNNKPQRPSQNGCQIRRHPTGTTPPVKKKPKLLNLKDSSMADASKHGGGTESLFFDKVRKALRSAEAYENFLRCLVIFNQEVISRAELVQLVSPFLGKFPELFNWFKNFLGYKESVHLETYPKERATEGIAMEIDYASCKRLGSSYRALPKSYQQPKCTGRTPLCKEVLNDTWVSFPSWSEDSTFVSSKKTQYEEHIYRCEDERFELDVVLETNLATIRVLEAIQKKLSRLSAEEQAKFRLDNTLGGTSEVIHRKALQRIYADKAADIIDGLRKNPSIAVPIVLKRLKMKEEEWREAQRGFNKVWREQNEKYYLKSLDHQGINFKQNDTKVLRSKSLLNEIESIYDERQEQATEENAGVPVGPHLSLAYEDKQILEDAAALIIHHVKRQTGIQKEDKYKIKQIMHHFIPDLLFAQRGDLSDVEEEEEEEMDVDEATGAVKKHNGVGGSPPKSKLLFSNTAAQKLRGMDEVYNLFYVNNNWYIFMRLHQILCLRLLRICSQAERQIEEENREREWEREVLGIKRDKSDSPAIQLRLKEPMDVDVEDYYPAFLDMVRSLLDGNIDSSQYEDSLREMFTIHAYIAFTMDKLIQSIVRQLQHIVSDEICVQVTDLYLAENNNGATGGQLNTQNSRSLLESTYQRKAEQLMSDENCFKLMFIQSQGQVQLTIELLDTEEENSDDPVEAERWSDYVERYMNSDTTSPELREHLAQKPVFLPRNLRRIRKCQRGREQQEKEGKEGNSKKTMENVDSLDKLECRFKLNSYKMVYVIKSEDYMYRRTALLRAHQSHERVSKRLHQRFQAWVDKWTKEHVPREMAAETSKWLMGEGLEGLVPCTTTCDTETLHFVSINKYRVKYGTVFKAP [SIN3A] | -0.073 | -0.136 | 1.76 | 4.27 | 48.4 | 49.5 |
| RNGTT | -0.0839 | -0.301 | 0.407 | 0.579 | 47.7 | 48.7 |
| MSGLSGPPARRGPFPLALLLLFLLGPRLVLAISFHLPINSRKCLREEIHKDLLVTGAYEISDQSGGAGGLRSHLKITDSAGHILYSKEDATKGKFAFTTEDYDMFEVCFESKGTGRIPDQLVILDMKHGVEAKNYEEIAKVEKLKPLEVELRRLEDLSESIVNDFAYMKKREEEMRDTNESTNTRVLYFSIFSMFCLIGLATWQVFYLRRFFKAKKLIE [TMED10] | -0.0383 | 0.076 | 0.651 | -0.174 | 55.3 | 55.8 |
| MSTSWSDRLQNAADMPANMDKHALKKYRREAYHRVFVNRSLAMEKIKCFGFDMDYTLAVYKSPEYESLGFELTVERLVSIGYPQELLSFAYDSTFPTRGLVFDTLYGNLLKVDAYGNLLVCAHGFNFIRGPETREQYPNKFIQRDDTERFYILNTLFNLPETYLLACLVDFFTNCPRYTSCETGFKDGDLFMSYRSMFQDVRDAVDWVHYKGSLKEKTVENLEKYVVKDGKLPLLLSRMKEVGKVFLATNSDYKYTDKIMTYLFDFPHGPKPGSSHRPWQSYFDLILVDARKPLFFGEGTVLRQVDTKTGKLKIGTYTGPLQHGIVYSGGSSDTICDLLGAKGKDILYIGDHIFGDILKSKKRQGWRTFLVIPELAQELHVWTDKSSLFEELQSLDIFLAELYKHLDSSSNERPDISSIQRRIKKVTHDMDMCYGMMGSLFRSGSRQTLFASQVMRYADLYAASFINLLYYPFSYLFRAAHVLMPHESTVEHTHVDINEMESPLATRNRTSVDFKDTDYKRHQLTRSISEIKPPNLFPLAPQEITHCHDEDDDEEEEEEEE [NT5C2] | -0.133 | -0.096 | -0.51 | -1.23 | 56.5 | 56.3 |
